Drawing on patent US6673915, this text covers half-maximal effective concentration of calcium flux and saturation of calcium flux response for 1 substance.

This assay deals with CC CKR2B stably expressed on HEK-293 cells (Example 10A) (human) (UniProt P41597). The experiment in a line: cell-based or functional assay.
Chain of CC CKR2B stably expressed on HEK-293 cells (Example 10A) (human) (P41597 whole entry): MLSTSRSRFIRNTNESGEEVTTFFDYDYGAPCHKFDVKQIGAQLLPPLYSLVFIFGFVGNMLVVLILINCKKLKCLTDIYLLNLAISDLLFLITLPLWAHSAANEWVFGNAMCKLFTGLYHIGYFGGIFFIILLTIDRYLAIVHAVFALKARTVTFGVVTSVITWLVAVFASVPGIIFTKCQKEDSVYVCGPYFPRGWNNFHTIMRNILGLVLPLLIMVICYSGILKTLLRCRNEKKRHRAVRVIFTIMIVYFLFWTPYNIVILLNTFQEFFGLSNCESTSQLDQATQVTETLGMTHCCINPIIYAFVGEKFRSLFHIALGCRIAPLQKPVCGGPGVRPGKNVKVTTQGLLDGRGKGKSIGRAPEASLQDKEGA

Chain of recombinant human MCP-4 with the mature N-terminal Gln (PeproTech), Q99616 24-98 (ligand) (Q99616 24-98): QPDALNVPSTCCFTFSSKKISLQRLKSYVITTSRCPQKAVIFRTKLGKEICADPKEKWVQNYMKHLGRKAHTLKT

With “recombinant human MCP-4 with the mature N-terminal Gln (PeproTech), Q99616 24-98 (ligand)”, the half-maximal effective concentration of calcium flux amounted to 15 nM and the saturation of calcium flux response was 100 nM.
